Source: publication PMC4236683 (2014)

Key:
PlexinA2 = target: T1, PlexinA2 (Mus musculus, UniProt P70207); experiment: saturation binding
T1 chain: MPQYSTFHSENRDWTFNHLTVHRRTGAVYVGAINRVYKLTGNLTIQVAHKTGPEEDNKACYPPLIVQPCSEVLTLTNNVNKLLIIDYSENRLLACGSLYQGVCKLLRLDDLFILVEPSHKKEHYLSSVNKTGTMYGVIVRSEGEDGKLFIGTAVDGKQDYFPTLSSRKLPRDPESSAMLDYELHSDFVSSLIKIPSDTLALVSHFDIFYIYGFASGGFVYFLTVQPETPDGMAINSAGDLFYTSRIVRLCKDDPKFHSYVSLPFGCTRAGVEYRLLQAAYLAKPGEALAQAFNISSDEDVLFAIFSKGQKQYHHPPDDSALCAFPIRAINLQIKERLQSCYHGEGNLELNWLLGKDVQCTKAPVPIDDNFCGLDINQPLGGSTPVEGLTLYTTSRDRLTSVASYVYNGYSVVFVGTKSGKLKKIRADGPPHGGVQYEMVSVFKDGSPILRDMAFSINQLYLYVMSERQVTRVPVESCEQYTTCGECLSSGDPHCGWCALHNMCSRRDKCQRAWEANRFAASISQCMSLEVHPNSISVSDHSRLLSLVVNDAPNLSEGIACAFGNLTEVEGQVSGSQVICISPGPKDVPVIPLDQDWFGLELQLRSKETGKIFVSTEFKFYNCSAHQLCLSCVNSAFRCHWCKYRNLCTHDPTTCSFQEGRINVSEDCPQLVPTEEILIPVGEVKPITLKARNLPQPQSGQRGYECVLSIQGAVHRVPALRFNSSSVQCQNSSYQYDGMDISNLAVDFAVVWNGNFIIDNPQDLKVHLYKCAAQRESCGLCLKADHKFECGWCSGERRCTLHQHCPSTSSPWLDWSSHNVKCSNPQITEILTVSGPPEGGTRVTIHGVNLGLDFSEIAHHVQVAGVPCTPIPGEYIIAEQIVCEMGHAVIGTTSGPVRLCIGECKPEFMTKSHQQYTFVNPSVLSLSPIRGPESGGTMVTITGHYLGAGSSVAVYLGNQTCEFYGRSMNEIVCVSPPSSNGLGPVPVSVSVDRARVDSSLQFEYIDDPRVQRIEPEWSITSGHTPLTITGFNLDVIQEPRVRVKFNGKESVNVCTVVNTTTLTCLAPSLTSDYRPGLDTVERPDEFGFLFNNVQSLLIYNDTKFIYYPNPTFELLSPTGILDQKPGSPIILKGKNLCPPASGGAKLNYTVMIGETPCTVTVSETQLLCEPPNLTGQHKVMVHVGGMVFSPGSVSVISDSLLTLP

PlexinA1 = PlexinA1 (Mus musculus, UniProt P70206); experiment: saturation binding
Sequence of PlexinA1 (P70206 28-1242): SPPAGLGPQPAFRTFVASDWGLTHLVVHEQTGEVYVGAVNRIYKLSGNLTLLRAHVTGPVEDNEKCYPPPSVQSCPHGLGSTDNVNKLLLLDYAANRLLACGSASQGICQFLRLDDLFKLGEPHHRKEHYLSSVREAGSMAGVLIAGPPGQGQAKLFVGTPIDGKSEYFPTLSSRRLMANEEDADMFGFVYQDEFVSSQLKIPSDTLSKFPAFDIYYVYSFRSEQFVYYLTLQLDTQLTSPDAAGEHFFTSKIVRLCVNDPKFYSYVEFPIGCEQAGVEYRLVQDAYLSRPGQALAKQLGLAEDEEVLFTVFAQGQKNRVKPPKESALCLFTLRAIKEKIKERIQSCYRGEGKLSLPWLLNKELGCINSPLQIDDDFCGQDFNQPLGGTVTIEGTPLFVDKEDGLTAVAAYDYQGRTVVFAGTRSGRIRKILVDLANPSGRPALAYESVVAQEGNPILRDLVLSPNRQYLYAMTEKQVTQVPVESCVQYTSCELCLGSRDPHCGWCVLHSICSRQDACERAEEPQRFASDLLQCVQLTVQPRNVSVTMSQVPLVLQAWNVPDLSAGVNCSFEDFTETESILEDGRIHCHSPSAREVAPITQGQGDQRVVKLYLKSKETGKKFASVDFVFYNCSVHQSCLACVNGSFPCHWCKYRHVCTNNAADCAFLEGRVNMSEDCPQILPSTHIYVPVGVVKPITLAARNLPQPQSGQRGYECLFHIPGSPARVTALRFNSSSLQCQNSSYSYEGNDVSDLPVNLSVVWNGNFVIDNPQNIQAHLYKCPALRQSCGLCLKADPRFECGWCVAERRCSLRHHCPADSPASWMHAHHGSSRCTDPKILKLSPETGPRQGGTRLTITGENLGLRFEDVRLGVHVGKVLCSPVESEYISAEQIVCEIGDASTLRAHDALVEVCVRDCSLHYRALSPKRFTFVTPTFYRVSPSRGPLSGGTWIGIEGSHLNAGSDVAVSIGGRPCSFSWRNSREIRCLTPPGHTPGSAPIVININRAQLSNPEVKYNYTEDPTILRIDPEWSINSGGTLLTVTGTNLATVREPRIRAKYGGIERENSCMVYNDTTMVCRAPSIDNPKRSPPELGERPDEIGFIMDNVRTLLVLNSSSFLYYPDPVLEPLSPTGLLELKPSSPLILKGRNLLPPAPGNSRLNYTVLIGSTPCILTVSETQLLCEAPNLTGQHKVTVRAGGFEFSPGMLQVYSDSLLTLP

B1: Sema5A-Fc (protein)
chain: PETQDPAKCQRAEHPVVSYKEIGPWLREFRAENAVDFSRLTFDPGQKELVVGARNYLFRLELEDLSLIQAVEWECDEATKKACYSKGKSKEECQNYIRVLLVGGDRLFTCGTNAFTPVCTIRSLSNLTEIHDQISGMARCPYSPQHNSTALLTASGELYAATAMDFPGRDPAIYRSLGTLPPLRTAQYNSKWLNEPNFVSSYDIGNFTYFFFRENAVEHDCGKTVFSRPARVCKNDIGGRFLLEDTWTTFMKARLNCSRPGEVPFYYNELQGTFFLPELDLIYGIFTTNVNSIASSAVCVFNLSAISQAFNGPFKYQENSRSAWLPYPNPNPNFQCGTMDQGLYVNLTERNLQDAQKFILMHEVVQPVTTVPSFMEDNSRFSHLAVDVVQGRETLVHIIYLGTDYGTIKKVRAPLSQSSGSCLLEEIELFPERRSEPIRSLQILHSQSVLFVGLQEHVAKIPLKRCHFHQTRSACIGAQDPYCGWDAVMKKCTSLEESLSMTQWDQSIPTCPTRNLTVDGSFGPWSPWTPCTHTDGTAVGSCLCRSRSCDRPAPQCGGWQCEGPRMEITNCSRNGGWTPWTSWSPCSTTCGIGFQVRQRSCSNPTPRHGGRVCVGQNREERYCNEHLLCPPHVFWTGWGPWERCTAQCGGGIQARRRTCENGPDCAGSNVEYHPCNTNACPELKKTTPWTPWTPVNISDNGGHYEQRFRYTCKARLPDPNLLEVGRQRIEMRYCSSDGTSGCSTDGLSGDFLRAGRYSAHTVNGAWSAWTSWSQCSRDCSRGIRNRKRVCNNPEPKFGGMPCLGPSLEFQECNILPCPVDGVWSCWSSWSKCSATCGGGHYMRTRSCSNPAPAYGGDICLGLHTEEALCNTQTCPESWSEWSDWSVCDASGTQVRARQCILLFPVGSQCSGNTTESRPCVFDSNFIPEVSVARSSSVEEKRCGEFNMFHM
Kd (PlexinA2): ~11.5 nM
Kd (PlexinA1): ~11.5 nM
